Data reported in US9243044B2, “Anticoagulant polypeptide and applications thereof” (GUANGDONG MEDICAL COLLEGE, priority 2011, dated 2016).

B1: NAPTin-2 (protein)
chain: NPSCGENERHDECSRKECDPKCKYDGTEEKDDEKPVVCLTRVCYGDCICRDGFLRNKNGACVKAEDCELDN
modifications: Sequence derived from Ancylostoma caninum or Synthetic
B2: NAPTin-6 (protein)
chain: NPSCGENERHDECSRKECDPKCKYDGTEEKDDEKPVVCLTRVCYGDCICRDGFLRNKNGACVKAEDCE
modifications: Sequence derived from Ancylostoma caninum or Synthetic
B3: NAPTin-4 (protein)
chain: NPSCGENERHDECSRKECDPKCKYDGTEEKDDEKPVVCLTRVCYGDCICRDGFLRNKNGACVKAEDCELDNME
modifications: Sequence derived from Ancylostoma caninum or Synthetic

biological target: T1, human fXIa (Homo sapiens, UniProt P03951); assay: Chromogenic assay, fXIa; assay type: biochemical; settings: 100 nM
T1 construct: Human coagulation factors IIa (thrombin), Xa, XIa, XIIa, EGR-fXa; purchased Haematologic Technologies Inc (United States)
From the text: (§1) The recombinant anticoagulant polypeptides in the present invention were expressed in E. coli and purified in our laboratory, of which the activities against coagulation factors were investigated by chromogenic assays. Human coagulation factors IIa (thrombin), Xa, XIa, XIIa, EGR-fXa were products of Haematologic Technologies Inc (United States). Recombinant fVIIa was products of Novo-Nordisk (Denmark). Recombinant soluble tissue factor (sTF) was purchased from Protgen (Beijing, China). The following chromogenic substrates were used for these coagulation factor assays: S2765 for human fXa, S2288 for human fVIIa and fIIa, 52366 for human fXIa and fXIIa, respectively.
(§2) The chromogenic assays were carried out in a total reaction volume of 100 μl in individual wells of a 96-well microtiter plate. 50 μl fIIa, fXa, fXIa, or fXIIa (final concentration: 1 nM) was incubated with 10 μl recombinant anticoagulant polypeptide at various concentrations (or PBS control group) Assays for the detection activity of fVIIa: 50 μl fVIIa+TF (1 μM) and EGR-fXa (final concentration 500 nM) was incubated for 15 mins at 25° C., respectively. After the addition of 40 μl of prewarmed chromogenic substrate to a final concentration of 400 μM, the changes of absorbance at 405 nm were monitored by using an E1x808 kinetic microtiter reader. The data were used to calculate the velocities of response.

T1 sequence (P03951 19-387 limits assumed): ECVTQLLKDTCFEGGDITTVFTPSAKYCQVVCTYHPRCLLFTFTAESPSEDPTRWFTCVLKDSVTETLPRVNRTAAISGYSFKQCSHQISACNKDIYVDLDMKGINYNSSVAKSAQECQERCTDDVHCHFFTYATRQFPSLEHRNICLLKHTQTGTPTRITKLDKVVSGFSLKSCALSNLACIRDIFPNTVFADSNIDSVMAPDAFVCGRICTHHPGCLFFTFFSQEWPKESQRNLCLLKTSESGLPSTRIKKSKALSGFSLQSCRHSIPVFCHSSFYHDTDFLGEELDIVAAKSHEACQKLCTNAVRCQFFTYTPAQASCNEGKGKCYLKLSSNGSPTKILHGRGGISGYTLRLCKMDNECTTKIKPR
T1 sequence (P03951 388-625 limits assumed): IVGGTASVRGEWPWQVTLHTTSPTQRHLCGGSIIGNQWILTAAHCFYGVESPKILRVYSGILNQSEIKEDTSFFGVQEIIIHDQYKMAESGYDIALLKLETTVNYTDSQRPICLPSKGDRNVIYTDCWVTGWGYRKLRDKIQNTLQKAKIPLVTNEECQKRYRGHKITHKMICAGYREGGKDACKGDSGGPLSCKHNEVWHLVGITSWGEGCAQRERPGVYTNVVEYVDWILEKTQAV

Molecule | inhibition of the activity of fXIa
B1 | more than 90%
B2 | more than 90%
B3 | more than 90%

same assay, conditions: 200 nM

Molecule | inhibition of the activity of fXIa (in words)
B1 | almost completely inhibited
B2 | almost completely inhibited
B3 | almost completely inhibited

system: normal human plasma; assay: PT assay in normal human plasma; assay type: biochemical; settings: 100 nM and 500 nM
Experimental: (§3) The recombinant anticoagulant polypeptides were expressed in Escherichia coli and purified in our laboratory. Anticoagulant activity was determined by measuring the aPTT and PT.
For the PT assay, 10 μl recombinant protein at various concentration was mixed with 45 μl normal human plasma and incubated for 15 mins at 37° C. 45 μl prewarmed PT reagent (MDC Hemostasis, Germany) was then added and the clotting time was measured with the absorbance at 630 nm by using an E1x808 kinetic microtiter reader (BioTek, United States). Each concentration was repeated 3 times.

Molecule | prolongation of PT (in words)
B1 | couldn't prolong PT
B2 | couldn't prolong PT
B3 | couldn't prolong PT

same assay, conditions: 100 nM, normal human plasma

Molecule | PT
B1 | 11.7 ± 1.1 s
B2 | 12.4 ± 0.9 s
B3 | 12.4 ± 0.9 s

same assay, conditions: 500 nM, normal human plasma

Molecule | PT
B1 | 12.6 ± 0.5 s
B2 | 12.6 ± 0.4 s
B3 | 11.6 ± 0.3 s

biological target: T2, human fXIIa (Homo sapiens, UniProt P00748); assay: Chromogenic assay, fXIIa; assay type: biochemical; settings: 100 nM
T2 construct: Human coagulation factors IIa (thrombin), Xa, XIa, XIIa, EGR-fXa; purchased Haematologic Technologies Inc (United States)
T2 sequence (P00748 373-615 limits assumed): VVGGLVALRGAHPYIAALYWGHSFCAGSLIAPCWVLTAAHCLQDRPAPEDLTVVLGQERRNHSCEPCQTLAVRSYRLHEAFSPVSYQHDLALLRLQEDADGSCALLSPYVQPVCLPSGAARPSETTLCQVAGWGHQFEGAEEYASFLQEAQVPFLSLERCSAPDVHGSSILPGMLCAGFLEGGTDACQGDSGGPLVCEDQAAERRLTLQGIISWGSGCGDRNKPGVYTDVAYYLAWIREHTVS
T2 sequence (P00748 20-372 limits assumed): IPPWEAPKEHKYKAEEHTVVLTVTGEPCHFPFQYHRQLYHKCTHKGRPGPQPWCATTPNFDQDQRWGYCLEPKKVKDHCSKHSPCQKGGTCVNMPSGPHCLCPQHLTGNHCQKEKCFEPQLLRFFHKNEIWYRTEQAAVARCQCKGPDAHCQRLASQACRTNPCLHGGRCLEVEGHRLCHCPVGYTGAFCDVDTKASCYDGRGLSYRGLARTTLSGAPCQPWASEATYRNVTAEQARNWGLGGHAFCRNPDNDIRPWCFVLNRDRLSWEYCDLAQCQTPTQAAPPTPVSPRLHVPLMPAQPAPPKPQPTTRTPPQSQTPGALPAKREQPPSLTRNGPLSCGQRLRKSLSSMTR
From the text: as §1, §2

Molecule | effect on fXIIa activity (in words)
B1 | without affecting
B2 | without affecting
B3 | without affecting

same assay, conditions: 200 nM

Molecule | effect on fXIIa activity (in words)
B1 | without affecting
B2 | without affecting
B3 | without affecting

biological target: T3, human fIIa (thrombin) (Homo sapiens, UniProt P00734); assay: Chromogenic assay, fIIa (thrombin); assay type: biochemical; settings: 100 nM
T3 construct: Human coagulation factors IIa (thrombin), Xa, XIa, XIIa, EGR-fXa; purchased Haematologic Technologies Inc (United States)
From the text: as §1, §2

Molecule | effect on fIIa activity (in words)
B1 | without affecting
B2 | without affecting
B3 | without affecting

same assay, conditions: 200 nM

Molecule | effect on fIIa activity (in words)
B1 | without affecting
B2 | without affecting
B3 | without affecting

biological target: T4, human fXa (Homo sapiens, UniProt P00742); assay: Chromogenic assay, fXa; assay type: biochemical; settings: 100 nM
T4 construct: Human coagulation factors IIa (thrombin), Xa, XIa, XIIa, EGR-fXa; purchased Haematologic Technologies Inc (United States)
From the text: as §1, §2

T4 sequence (P00742 41-179 limits assumed): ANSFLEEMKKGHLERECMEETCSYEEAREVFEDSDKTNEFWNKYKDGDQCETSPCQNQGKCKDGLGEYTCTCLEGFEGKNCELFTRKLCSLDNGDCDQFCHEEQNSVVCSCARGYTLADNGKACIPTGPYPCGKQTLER
T4 sequence (P00742 235-488 limits assumed): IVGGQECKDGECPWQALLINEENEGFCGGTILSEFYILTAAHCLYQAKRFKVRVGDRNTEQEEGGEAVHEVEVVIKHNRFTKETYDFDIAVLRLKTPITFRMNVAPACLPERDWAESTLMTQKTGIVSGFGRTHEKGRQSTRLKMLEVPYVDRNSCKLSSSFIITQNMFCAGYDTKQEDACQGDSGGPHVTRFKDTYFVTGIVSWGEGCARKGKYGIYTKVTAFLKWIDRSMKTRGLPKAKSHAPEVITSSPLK

Molecule | effect on fXa activity (in words)
B1 | without affecting
B2 | without affecting
B3 | without affecting

same assay, conditions: 200 nM

Molecule | effect on fXa activity (in words)
B1 | without affecting
B2 | without affecting
B3 | without affecting

biological target: T5, fVIIa/TF (Homo sapiens, UniProt P08709); assay: Chromogenic assay, fVIIa/TF; assay type: biochemical; settings: 100 nM
T5 construct: Recombinant fVIIa was products of Novo-Nordisk (Denmark); purchased Novo-Nordisk (Denmark) for fVIIa; Protgen (Beijing, China) for sTF; Haematologic Technologies Inc for EGR-fXa
From the text: as §1, §2

T5 sequence (P08709 61-212 limits assumed): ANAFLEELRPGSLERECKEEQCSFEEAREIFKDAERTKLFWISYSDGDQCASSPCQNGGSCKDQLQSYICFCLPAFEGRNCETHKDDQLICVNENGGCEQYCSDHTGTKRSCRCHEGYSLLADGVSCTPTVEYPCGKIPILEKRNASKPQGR
T5 sequence (P08709 213-466 limits assumed): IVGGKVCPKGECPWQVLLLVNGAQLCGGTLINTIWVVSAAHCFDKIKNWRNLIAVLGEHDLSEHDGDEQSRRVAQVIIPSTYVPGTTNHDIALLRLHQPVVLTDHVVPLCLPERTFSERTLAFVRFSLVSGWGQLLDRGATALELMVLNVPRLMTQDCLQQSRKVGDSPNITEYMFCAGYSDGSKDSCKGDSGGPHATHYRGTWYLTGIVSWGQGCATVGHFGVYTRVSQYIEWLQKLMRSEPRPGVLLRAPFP
T5 sequence (P13726 33-251 partner limits assumed): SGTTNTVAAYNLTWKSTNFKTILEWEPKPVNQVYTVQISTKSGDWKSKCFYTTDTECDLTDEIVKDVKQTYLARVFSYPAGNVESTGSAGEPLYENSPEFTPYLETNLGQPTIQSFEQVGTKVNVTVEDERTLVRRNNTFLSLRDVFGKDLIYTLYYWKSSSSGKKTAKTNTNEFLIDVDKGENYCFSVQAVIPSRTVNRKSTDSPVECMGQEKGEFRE

Molecule | effect on fVIIa/TF activity (in words)
B1 | without affecting
B2 | without affecting
B3 | without affecting

same assay, conditions: 200 nM

Molecule | effect on fVIIa/TF activity (in words)
B1 | without affecting
B2 | without affecting
B3 | without affecting

system: normal human plasma; assay: aPTT assay in normal human plasma; assay type: biochemical; settings: 100 nM and 500 nM
Experimental: as §3
For the aPTT assay, 10 μl recombinant protein at various concentrations was mixed with 50 μl fresh normal human plasma, 20 μl aPTT reagent (MDC Hemostasis, Germany) and incubated for 15 mins at 37° C. 20 μl 0.05 mol/L prewarmed CaCl2 was then added to initiate the clotting reaction. The clotting time was measured with the absorbance at 630 nm by using an E1x808 kinetic microtiter reader (BioTek, United States). Each concentration was repeated 3 times. The ratio of the mean aPTT value of each concentration to blank control group is multiples of prolonging the aPTT.

Molecule | prolongation of aPTT (in words)
B1 | significantly prolong aPTT
B2 | significantly prolong aPTT
B3 | significantly prolong aPTT

same assay, conditions: 100 nM, normal human plasma

Molecule | aPTT
B1 | 80.2 ± 5.1 s
B2 | 79.5 ± 3.1 s
B3 | 78.7 ± 3.7 s

same assay, conditions: 100 nM; ratio of mean aPTT to blank control

Molecule | multiples of prolonging aPTT
B1 | 2.0
B2 | 1.98
B3 | 1.96

same assay, conditions: 500 nM, normal human plasma

Molecule | aPTT
B1 | 221.8 ± 6.3 s
B2 | 215.4 ± 5.6 s
B3 | 233.3 ± 4.5 s

same assay, conditions: 500 nM; ratio of mean aPTT to blank control

Molecule | multiples of prolonging aPTT
B1 | 5.53
B2 | 5.37
B3 | 5.82
